Results as given in the supplement of paper PMC10598134.
± gives the standard deviation.

Assay: collision cross section of modified peptide (TIMS, N2, iRT-aligned); higher = larger / more extended gas-phase ion
Procedure, shortened: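 Synthetic peptide pools (~100 fmol/µL in 2% acetonitrile/0.1% formic acid, iRT standard spiked 1:40) were separated on a 120-min nanoflow C18 gradient at 60 °C. They were analysed on a timsTOF Pro/HT (dda-PASEF, nitrogen, ~2.4 mbar) and identified with MaxQuant. 1/K0 was calibrated with three reference ions and aligned run-wise to the median iRT peptide deviation. Collision cross section came from the Mason-Schamp equation, averaging 1–3 technical replicates of the most abundant feature per charge state.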

[1] = charge state: 2, modification: Acetyl (K)
[2] = charge state: 2, modification: GlyGly (K)
[3] = charge state: 3, modification: GlyGly (K)
[4] = charge state: 2, modification: Nitro (Y)
[5] = charge state: 2, modification: Malonyl
[6] = charge state: 2, modification: Glutarylation
[7] = charge state: 2, modification: Methyl (K)
[8] = charge state: 3, modification: Methyl (K)
[9] = charge state: 2, modification: Phospho (Y)

Sequence: ANLEKAQAELVGTADEATR [_ANLEK(Biotin)AQAELVGTADEATR_]
- collision cross section (charge state: 2, modification: Biotin): 492.92 Å²

Sequence: PARGLYSR [_PAR(Citrullination (R))GLYSR_]
- collision cross section (charge state: 2, modification: Citrullination (R)): 324.52 ± 2.2 Å²

Sequence: SNEEGSEEKGPEVR [_SNEEGSEEK(Acetyl (K))GPEVR_]
- collision cross section [1]: 400.7 ± 1 Å²

Sequence: GETASKLQSEISR [_GETASK(GlyGly (K))LQSEISR_]
- collision cross section [2]: 415.57 ± 0.85 Å²
- collision cross section [3]: 455.84 ± 1.3 Å²

Sequence: ITASLCDLKSR [_ITASLCDLK(hydroxyisobutyryl)SR_]
- collision cross section (charge state: 2, modification: hydroxyisobutyryl): 395.08 ± 0.81 Å²

Sequence: YLHDESGLNR [_Y(Nitro (Y))LHDESGLNR_]
- collision cross section [4]: 366.66 ± 0.46 Å²
- collision cross section (charge state: 3, modification: Nitro (Y)): 429.41 ± 1.1 Å²

Sequence: TTEETSKPK [_TTEETSK(Dimethyl (K))PK_]
- collision cross section (charge state: 2, modification: Dimethyl (K)): 338.18 ± 1.5 Å²
- collision cross section (charge state: 3, modification: Dimethyl (K)): 409.31 Å²

Sequence: TFGKAAGPSLSHTSGGTQSK [_TFGK(Acetyl (K))AAGPSLSHTSGGTQSK_]
- collision cross section [1]: 486.77 ± 4.6 Å²
- collision cross section (charge state: 3, modification: Acetyl (K)): 516.14 ± 6 Å²

Sequence: SDDESSQKDIK [_SDDESSQK(Propionyl)DIK_]
- collision cross section (charge state: 2, modification: Propionyl): 377.44 ± 0.33 Å²

Sequence: IGNSYFKEEK [_IGNSYFK(Malonyl)EEK_]
- collision cross section [5]: 378.34 Å²

Sequence: ASNAAVKLAESK [_ASNAAVK(Gluratylation)LAESK_]
- collision cross section [6]: 379.86 ± 0.1 Å²

Sequence: VQGGALEDSQLVAGVAFKK [_VQGGALEDSQLVAGVAFK(GlyGly (K))K_]
- collision cross section [2]: 504.45 ± 0.061 Å²
- collision cross section [3]: 565.73 ± 1.7 Å²

Sequence: PSVSTKLISK [_PSVSTK(Trimethyl (K))LISK_]
- collision cross section (charge state: 2, modification: Trimethyl (K)): 364.51 ± 0.61 Å²
- collision cross section (charge state: 3, modification: Trimethyl (K)): 427.1 ± 2.4 Å²

Sequence: ASDTSSETVFGKR [_ASDTSSETVFGK(Methyl (K))R_]
- collision cross section [7]: 406.57 ± 1.3 Å²
- collision cross section [8]: 477.14 ± 3.8 Å²

Sequence: VNALKNLQVK [_VNALK(Gluratylation)NLQVK_]
- collision cross section [6]: 376.79 ± 0.1 Å²

Sequence: VPTTEKPTVTVNFR [_VPTTEK(Butyryl)PTVTVNFR_]
- collision cross section (charge state: 2, modification: Butyryl): 428.57 ± 0.24 Å²
- collision cross section (charge state: 3, modification: Butyryl): 508.36 ± 2.4 Å²

Sequence: SGKFTQQDIDEAK [_SGK(Malonyl)FTQQDIDEAK_]
- collision cross section [5]: 410.91 ± 0.58 Å²

Sequence: ASDTSSETVFGKR [_ASDTSSETVFGK(Malonyl)R_]
- collision cross section [5]: 387.3 ± 0.61 Å²

Sequence: AAQASDLEKIHLDEK [_AAQASDLEK(Crotonyl)IHLDEK_]
- collision cross section (charge state: 2, modification: Crotonyl): 464.23 ± 0.82 Å²
- collision cross section (charge state: 3, modification: Crotonyl): 499.02 ± 2.2 Å²

Sequence: TTEETSKPK [_TTEETSK(Acetyl (K))PK_]
- collision cross section [1]: 334.91 ± 0.21 Å²

Sequence: ASEALLKQLK [_ASEALLK(Malonyl)QLK_]
- collision cross section [5]: 374.73 ± 0.63 Å²

Sequence: VDVEVPDVSLEGPEGKLK [_VDVEVPDVSLEGPEGK(Gluratylation)LK_]
- collision cross section [6]: 465.13 ± 4.5 Å²
- collision cross section (charge state: 3, modification: Glutarylation): 502.24 Å²

Sequence: VPTTEKPTVTVNFR [_VPTTEK(Methyl (K))PTVTVNFR_]
- collision cross section [7]: 426.88 Å²
- collision cross section [8]: 510.49 ± 2 Å²

Sequence: LLEQKTQESQK [_LLEQK(Acetyl (K))TQESQK_]
- collision cross section [1]: 392.69 ± 0.79 Å²

Sequence: SYSVGASGSSSR [_SY(Phospho (Y))SVGASGSSSR_]
- collision cross section [9]: 356.68 ± 0.65 Å²

Sequence: AGPNASIISLKSDK [_AGPNASIISLK(Malonyl)SDK_]
- collision cross section [5]: 411.98 ± 0.71 Å²

Sequence: VYSLFLDESR [_VY(Nitro (Y))SLFLDESR_]
- collision cross section [4]: 377.85 ± 0.17 Å²

Sequence: LQIASDENYK [_LQIASDENY(Nitro (Y))K_]
- collision cross section [4]: 364.55 ± 1.2 Å²

Sequence: FGTINIVHPKLGSYTK [_FGTINIVHPK(Methyl (K))LGSYTK_]
- collision cross section [7]: 470.37 Å²
- collision cross section [8]: 541.06 ± 0.45 Å²

Sequence: PDTQYTGR [_PDTQY(Phospho (Y))TGR_]
- collision cross section [9]: 335.56 ± 0.067 Å²
